Results reported in patent US20180362620A1 (Genentech, published 2018).

Assays:
[1] = biological target: recombinant FcγRIIIa (V158) (R&D Systems, cat#4325-FC-050) (UniProt P08637); assay: Biacore binding to recombinant FcγRIIIa (V158), low density
[2] = biological target: recombinant FcγRIIIa (V158) (R&D Systems, cat#4325-FC-050) (UniProt P08637); assay: Biacore binding to recombinant FcγRIIIa (V158), high density
[3] = biological target: T1, recombinant FcγRIIIa (V158) (R&D Systems, cat#4325-FC-050) (UniProt P08637 17-208); assay: Biacore binding to recombinant FcγRIIIa (V158), low density
[4] = biological target: T1, recombinant FcγRIIIa (V158) (R&D …); assay: Biacore binding to recombinant FcγRIIIa (V158), high density
[5] = biological target: T1, recombinant FcγRIIIa (V158) (R&D …); assay: Biacore binding to recombinant FcγRIIIa
[6] = biological target: T1, recombinant FcγRIIIa (V158) (R&D …); assay: Biacore, FcγRIIIa (V158) binding (summary table; equals the 9th table, row 11, column 4)

T1 sequence (P08637 17-208 F176V limits assumed): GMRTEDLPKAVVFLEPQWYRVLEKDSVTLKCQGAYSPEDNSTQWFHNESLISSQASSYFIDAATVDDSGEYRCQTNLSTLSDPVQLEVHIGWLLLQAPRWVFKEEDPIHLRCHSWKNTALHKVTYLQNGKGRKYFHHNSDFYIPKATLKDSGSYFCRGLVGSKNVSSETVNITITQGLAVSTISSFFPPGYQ
Chain of recombinant FcγRIIIa (V158) (R&D Systems, cat#4325-FC-050) (UniProt P08637) (P08637 17-208 F176V limits assumed): as above

Molecule: Herceptin CHO (antibody)
- Kd [1]: 82 nM
- Kd [2]: 67 nM

B1: humanized 13C6 variant h13C6a expressed in FUT8KO CHO cells (antibody)
heavy: EVQLVESGPALVKPTQTLTLTCTFSGFSLSTSGVGVGWIRQPPGKALEWLALIWWDDDKYYNPSLKSRLTISKDTSKNQVVLTMTNMDPVDTATYYCARRDPFGYDNAMGYWGQGTLVTVSSASTKGPSVFPLAPSSKSTSGGTAALGCLVKDYFPEPVTVSWNSGALTSGVHTFPAVLQSSGLYSLSSVVTVPSSSLGTQTYICNVNHKPSNTKVDKKVEPKSCDKTHTCPPCPAPELLGGPSVFLFPPKPKDTLMISRTPEVTCVVVDVSHEDPEVKFNWYVDGVEVHNAKTKPREEQYNSTYRVVSVLTVLHQDWLNGKEYKCKVSNKALPAPIEKTISKAKGQPREPQVYTLPPSREEMTKNQVSLTCLVKGFYPSDIAVEWESNGQPENNYKTTPPVLDSDGSFFLYSKLTVDKSWQQGNVFSCSVMHEALHNHYTQKSLSLSPGK
light: DIQMTQSPSSLSASVGDRVTITCKASQNVGTAVAWYQQKPGKAPKLLIYSASNRYTGVPSRFSGSGSGTDFTLTISSLQPEDFATYYCQQYSSYPLTFGQGTKVEIKRTVAAPSVFIFPPSDEQLKSGTASVVCLLNNFYPREAKVQWKVDNALQSGNSQESVTEQDSKDSTYSLSSTLTLSKADYEKHKVYACEVTHQGLSSPVTKSFNRGEC
notes: copies: 2 + 2
- Kd [3]: 38 nM
- Kd [4]: 27 nM
- fold improvement of binding against CHO cell expressed material [5]: ~3 fold

B2: humanized 13C6 variant h13C6a expressed in CHO cells (antibody)
heavy: EVQLVESGPALVKPTQTLTLTCTFSGFSLSTSGVGVGWIRQPPGKALEWLALIWWDDDKYYNPSLKSRLTISKDTSKNQVVLTMTNMDPVDTATYYCARRDPFGYDNAMGYWGQGTLVTVSSASTKGPSVFPLAPSSKSTSGGTAALGCLVKDYFPEPVTVSWNSGALTSGVHTFPAVLQSSGLYSLSSVVTVPSSSLGTQTYICNVNHKPSNTKVDKKVEPKSCDKTHTCPPCPAPELLGGPSVFLFPPKPKDTLMISRTPEVTCVVVDVSHEDPEVKFNWYVDGVEVHNAKTKPREEQYNSTYRVVSVLTVLHQDWLNGKEYKCKVSNKALPAPIEKTISKAKGQPREPQVYTLPPSREEMTKNQVSLTCLVKGFYPSDIAVEWESNGQPENNYKTTPPVLDSDGSFFLYSKLTVDKSWQQGNVFSCSVMHEALHNHYTQKSLSLSPGK
light: DIQMTQSPSSLSASVGDRVTITCKASQNVGTAVAWYQQKPGKAPKLLIYSASNRYTGVPSRFSGSGSGTDFTLTISSLQPEDFATYYCQQYSSYPLTFGQGTKVEIKRTVAAPSVFIFPPSDEQLKSGTASVVCLLNNFYPREAKVQWKVDNALQSGNSQESVTEQDSKDSTYSLSSTLTLSKADYEKHKVYACEVTHQGLSSPVTKSFNRGEC
notes: copies: 2 + 2
- Kd [3]: 117 nM
- Kd [4]: 113 nM

B3: humanized 13C6 variant h13C6i expressed in CHO cells (antibody)
heavy: EVQLVESGPALVKPTQTLTLTCTFSGFSLSTSGVGVGWIRQPPGKALEWLALIWWDDDKYYNPSLKSRLTISKDTSKNQVVLTMTNMDPVDTATYYCARRDPFGYDNAMGYWGQGTLVTVSSASTKGPSVFPLAPSSKSTSGGTAALGCLVKDYFPEPVTVSWNSGALTSGVHTFPAVLQSSGLYSLSSVVTVPSSSLGTQTYICNVNHKPSNTKVDKKVEPKSCDKTHTCPPCPAPELLGGPSVFLFPPKPKDTLMISRTPEVTCVVVDVSHEDPEVKFNWYVDGVEVHNAKTKPREEQYNSTYRVVSVLTVLHQDWLNGKEYKCKVSNKALPAPIEKTISKAKGQPREPQVYTLPPSREEMTKNQVSLTCLVKGFYPSDIAVEWESNGQPENNYKTTPPVLDSDGSFFLYSKLTVDKSWQQGNVFSCSVMHEALHNHYTQKSLSLSPGK
light: DIQMTQSPSSLSASVGDRVTITCKASQNVGTAVAWYQQKPGKSPKLLIYSASNRYTGVPSRFSGSGSGTDFTLTISSLQPEDFATYFCQQYSSYPLTFGQGTKVEIKRTVAAPSVFIFPPSDEQLKSGTASVVCLLNNFYPREAKVQWKVDNALQSGNSQESVTEQDSKDSTYSLSSTLTLSKADYEKHKVYACEVTHQGLSSPVTKSFNRGEC
notes: copies: 2 + 2
- Kd [3]: 122 nM
- Kd [4]: 111 nM

B4: humanized 13C6 variant h13C6i expressed in FUT8KO CHO cells (antibody)
heavy: EVQLVESGPALVKPTQTLTLTCTFSGFSLSTSGVGVGWIRQPPGKALEWLALIWWDDDKYYNPSLKSRLTISKDTSKNQVVLTMTNMDPVDTATYYCARRDPFGYDNAMGYWGQGTLVTVSSASTKGPSVFPLAPSSKSTSGGTAALGCLVKDYFPEPVTVSWNSGALTSGVHTFPAVLQSSGLYSLSSVVTVPSSSLGTQTYICNVNHKPSNTKVDKKVEPKSCDKTHTCPPCPAPELLGGPSVFLFPPKPKDTLMISRTPEVTCVVVDVSHEDPEVKFNWYVDGVEVHNAKTKPREEQYNSTYRVVSVLTVLHQDWLNGKEYKCKVSNKALPAPIEKTISKAKGQPREPQVYTLPPSREEMTKNQVSLTCLVKGFYPSDIAVEWESNGQPENNYKTTPPVLDSDGSFFLYSKLTVDKSWQQGNVFSCSVMHEALHNHYTQKSLSLSPGK
light: DIQMTQSPSSLSASVGDRVTITCKASQNVGTAVAWYQQKPGKSPKLLIYSASNRYTGVPSRFSGSGSGTDFTLTISSLQPEDFATYFCQQYSSYPLTFGQGTKVEIKRTVAAPSVFIFPPSDEQLKSGTASVVCLLNNFYPREAKVQWKVDNALQSGNSQESVTEQDSKDSTYSLSSTLTLSKADYEKHKVYACEVTHQGLSSPVTKSFNRGEC
notes: copies: 2 + 2
- Kd [6]: 24 nM
- Kd [3]: 36 nM
- Kd [4]: 24 nM
- fold improvement of binding against CHO cell expressed material [5]: ~3 fold
